Laboratory results published in patent US20230287120A1 (ALLOGENE THERAPEUTICS, published 2023).
Where a chain is given by its changes, count along the chain named.

T1: Flag tagged recombinant DLL3 (Adipogen) (Homo sapiens (Human), UniProt Q9NYJ7 27-492)
T1 construct: Bought reagent; also called Flag-DLL3
T1 sequence: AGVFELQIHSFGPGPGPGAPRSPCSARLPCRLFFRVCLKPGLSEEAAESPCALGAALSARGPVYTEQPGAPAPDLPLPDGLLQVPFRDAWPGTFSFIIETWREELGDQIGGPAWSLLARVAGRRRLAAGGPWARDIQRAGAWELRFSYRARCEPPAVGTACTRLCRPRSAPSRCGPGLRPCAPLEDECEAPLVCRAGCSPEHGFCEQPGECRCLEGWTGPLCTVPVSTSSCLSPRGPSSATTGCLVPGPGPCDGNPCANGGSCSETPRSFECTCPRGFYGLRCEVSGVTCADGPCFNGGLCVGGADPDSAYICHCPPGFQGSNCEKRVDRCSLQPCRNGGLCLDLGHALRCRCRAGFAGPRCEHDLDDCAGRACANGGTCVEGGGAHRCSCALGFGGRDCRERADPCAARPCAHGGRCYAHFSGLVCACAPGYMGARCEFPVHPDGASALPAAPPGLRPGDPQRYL

B1: 6D8 (other)
CAR: QITLKESGPTLVKPTQTLTLTCTFSGFSLSTRGVGVGWIRQPPGKALEWLALIYWNDDKRYSPSLQTRLTITKDTPKNQVVLTMTNMDPVDTATYYCARSNWGNWYFALWGRGTLVTVSSGGGGSGGGGSGGGGSGGGGSEIVLTQSPATLSLSPGERATLSCRASQSVSSYLAWYQQKPGQAPRLLIYDAFYRATGIPARFSGSGSGTDFTLTISSLEPEDFAVYYCQHRSNWPITFGQGTRLEIKTTTPAPRPPTPAPTIASQPLSLRPEACRPAAGGAVHTRGLDFACDIYIWAPLAGTCGVLLLSLVITKRGRKKLLYIFKQPFMRPVQTTQEEDGCSCRFPEEEEGGCELRVKFSRSADAPAYQQGQNQLYNELNLGRREEYDVLDKRRGRDPEMGGKPRRKNPQEGLYNELQKDKMAEAYSEIGMKGERRRGKGHDGLYQGLSTATKDTYDALHMQALPPR
notes: also called anti-DLL3 CAR with 6D8 scFv, on primary T cells
B2: 8E11 (other)
CAR: QVQLQESGPGLVKPSETLSLTCTVSGDSISNYYWTWIRQPPGKGLEWIGYIYYSGTTNSNPSLKSRVTVSLDTSKSQFSLNLSSVTAADTAVYYCARVFNRGFAFDIWGQGTMVTVSSGGGGSGGGGSGGGGSGGGGSEIVLTQSPGTLSLSPGERATLSCRASQRISNTYLAWYQQKPGQAPRLLIYGASSRATGIPDRFSGSGSGTDFTLTISRLEPEDFAAYYCQQYDTSPLTFGGGTKVEIKTTTPAPRPPTPAPTIASQPLSLRPEACRPAAGGAVHTRGLDFACDIYIWAPLAGTCGVLLLSLVITKRGRKKLLYIFKQPFMRPVQTTQEEDGCSCRFPEEEEGGCELRVKFSRSADAPAYQQGQNQLYNELNLGRREEYDVLDKRRGRDPEMGGKPRRKNPQEGLYNELQKDKMAEAYSEIGMKGERRRGKGHDGLYQGLSTATKDTYDALHMQALPPR
notes: also called anti-DLL3 CAR with 8E11 scFv, on primary T cells
B3: 7F9 (other)
CAR: EVQLVESGGGLVQPGGSLRLSCAASGFTFSSHDMHWVRQATGKGLEWVSAIGIAGDTYYSGSVKGRFTISRENAKNSLYLQMNSLRAGDTAVYYCARANWGEGAFDIWGQGTMVTVSSGGGGSGGGGSGGGGSGGGGSDIQMTQSPSSLSASVGDRVTITCRASQGISDYLAWYQQKPGKIPKLLIYAASTLQSGVPSRFSGSGSGTDFTLTISSLQPEDVATYYCQKYNSVPLTFGGGTKVEIKTTTPAPRPPTPAPTIASQPLSLRPEACRPAAGGAVHTRGLDFACDIYIWAPLAGTCGVLLLSLVITKRGRKKLLYIFKQPFMRPVQTTQEEDGCSCRFPEEEEGGCELRVKFSRSADAPAYQQGQNQLYNELNLGRREEYDVLDKRRGRDPEMGGKPRRKNPQEGLYNELQKDKMAEAYSEIGMKGERRRGKGHDGLYQGLSTATKDTYDALHMQALPPR
notes: also called anti-DLL3 CAR with 7F9 scFv, on primary T cells
B4: 9D3 (other)
CAR: QVQLQESGPGLVKPSETLSLTCTVSDDSISNYYWSWIRQPPGKGLEWIGYIFYSGTTNHNPSLKSRLTISLDKAKNQFSLRLSSVTAADTAVYYCARVFNWGFAFDIWGQGTMVTVSSGGGGSGGGGSGGGGSGGGGSEIVLTQSPGTLSLSPGERATLSCRASQRISRTYLAWYQQKPGQAPRLLIYGASSRATGIPDRFTGSGSGTDFTLTISRLEPEDFAVYYCQQYGTSPLTFGGGTKVEINTTTPAPRPPTPAPTIASQPLSLRPEACRPAAGGAVHTRGLDFACDIYIWAPLAGTCGVLLLSLVITKRGRKKLLYIFKQPFMRPVQTTQEEDGCSCRFPEEEEGGCELRVKFSRSADAPAYQQGQNQLYNELNLGRREEYDVLDKRRGRDPEMGGKPRRKNPQEGLYNELQKDKMAEAYSEIGMKGERRRGKGHDGLYQGLSTATKDTYDALHMQALPPR
notes: also called anti-DLL3 CAR with 9D3 scFv, on primary T cells
B5: 26C8 (other)
CAR: QVQLQESGPGLVKPSETLSLTCTVSDNSISNYYWSWIRQPPGKGLEWIAYIYYSGTTNYNPSLKSRVTISLDTSKNQFSLQLSSVTAADAAVYYCARVFHWGFAFDIWGQGTMVTVSSGGGGSGGGGSGGGGSGGGGSEIVLTQSPGTLSLSPGERATLSCRASQRVSNTYLAWYQQNPGQAPRLLIYGASSRATGIPDRFSGSGSGTDFTLTISRLEPEDFAVYYCQQYGTSPLTFGGGTKVEIKTTTPAPRPPTPAPTIASQPLSLRPEACRPAAGGAVHTRGLDFACDIYIWAPLAGTCGVLLLSLVITKRGRKKLLYIFKQPFMRPVQTTQEEDGCSCRFPEEEEGGCELRVKFSRSADAPAYQQGQNQLYNELNLGRREEYDVLDKRRGRDPEMGGKPRRKNPQEGLYNELQKDKMAEAYSEIGMKGERRRGKGHDGLYQGLSTATKDTYDALHMQALPPR
notes: also called anti-DLL3 CAR with 26C8 scFv, on primary T cells
B6: 4F9 (other)
CAR: QVQLQQWGAGLLKPSETLSLTCAVYGGSFSGYYWTWIRQPPGKGLEWIGEITHSGSTNYNPSLKSRVSISVDTSKNQFSLKLSSVTAADTAVYYCARGEYGSGSRFDYWGQGTLVTVSSGGGGSGGGGSGGGGSGGGGSAIQMTQSPSSLSASVGDRVAITCRASQGIRDDLGWYQQKPGKAPKLLIYAASSLQSGVPSRFSGSGSDTDFTLTISSLQPEDFATYYCLQDYDYPLTFGGGTKVEIKTTTPAPRPPTPAPTIASQPLSLRPEACRPAAGGAVHTRGLDFACDIYIWAPLAGTCGVLLLSLVITKRGRKKLLYIFKQPFMRPVQTTQEEDGCSCRFPEEEEGGCELRVKFSRSADAPAYQQGQNQLYNELNLGRREEYDVLDKRRGRDPEMGGKPRRKNPQEGLYNELQKDKMAEAYSEIGMKGERRRGKGHDGLYQGLSTATKDTYDALHMQALPPR
notes: also called anti-DLL3 CAR with 4F9 scFv, on primary T cells
B7: 3E4 (other)
CAR: B6 CAR with T35S, T52I, T57S, A96S, G205R
notes: also called anti-DLL3 CAR with 3E4 scFv, on primary T cells
B8: 4G9 (other)
CAR: B6 CAR with T35S, I160L
notes: also called anti-DLL3 CAR with 4G9 scFv, on primary T cells
B9: 5A2 (other)
CAR: QVQLQESGPGLMKPSETLSLTCTVSGGSISSSYWSCIRQPPGKGLEWIGYIYYSGTTNYNPSLKSRVTLSLDTSKNQFSLRLTSVTAADTAVYYCARVAPTGFWFDYWGQGTLVTVSSGGGGSGGGGSGGGGSGGGGSEIVLTQSPGTLSLSPGERATLSCRASQRVSSRYLAWYQQKPGQAPRLLIYGASSRATGIPDRFSGSGSGTDFTLTISRLEPEEFAVYYCQQYGTSPLTFGGGTKVEIKTTTPAPRPPTPAPTIASQPLSLRPEACRPAAGGAVHTRGLDFACDIYIWAPLAGTCGVLLLSLVITKRGRKKLLYIFKQPFMRPVQTTQEEDGCSCRFPEEEEGGCELRVKFSRSADAPAYQQGQNQLYNELNLGRREEYDVLDKRRGRDPEMGGKPRRKNPQEGLYNELQKDKMAEAYSEIGMKGERRRGKGHDGLYQGLSTATKDTYDALHMQALPPR
notes: also called anti-DLL3 CAR with 5A2 scFv, on primary T cells

Columns and labels:
[1] = biological target: T1, Flag tagged recombinant DLL3 (Adipogen); experiment: flow cytometry, percent of T cells that recognise recombinant DLL3, Donor 117
Protocol: (§1) To determine the percentage of T cells that were successfully transduced with DLL3 CAR, T cells were first incubated with 1 ug/ml Flag tagged recombinant DLL3 (Adipogen) in PBS+1% BSA for 20 minutes at 4 C.

[2] = biological target: T1, Flag tagged recombinant DLL3 (Adipogen); experiment: flow cytometry, percent of T cells that recognise recombinant DLL3, Donor 116
Protocol: as §1

[3] = biological target: T1, Flag tagged recombinant DLL3 (Adipogen); experiment: flow cytometry, primary T cells with the CAR, 1 ug/ml Flag tagged recombinant DLL3, PE anti-Flag
Protocol: as §1

[4] = biological target: T1, Flag tagged recombinant DLL3 (Adipogen); experiment: flow cytometry, percent of T cells that recognise recombinant DLL3, Donor 419
Protocol: as §1

| Binder | Transduction efficiency [1] [%] | Transduction efficiency [2] [%] | Rec-DLL3 gate, percent of live CD3+ cells [3] [%] | Transduction efficiency [4] [%] |
| --- | --- | --- | --- | --- |
| B1 | 34.8 | 32.4 | 32.4 | – |
| B2 | 41.4 | 39.1 | 39.1 | – |
| B3 | 37.4 | 42.2 | 42.2 | – |
| B4 | 50.8 | 52.4 | 52.4 | – |
| B5 | 46.9 | 48.9 | 48.9 | – |
| B6 | – | 67.5 | – | 49.4 |
| B7 | – | 58.3 | – | 46.4 |
| B8 | – | 48.9 | – | 35.2 |
| B9 | 47.4 | 49.1 | 49.1 | – |
